Values quoted from earlier work as cited in patent US8541373B2, “BChE albumin fusions for the treatment of cocaine abuse” (priority 2009, dated 2013).

B1: A328W/Y332A (protein, UniProt P06276 29-602, looked up, variant A328W Y332A)
Cholinesterase: EDDIIIATKNGKVRGMNLTVFGGTVTAFLGIPYAQPPLGRLRFKKPQSLTKWSDIWNATKYANSCCQNIDQSFPGFHGSEMWNPNTDLSEDCLYLNVWIPAPKPKNATVLIWIYGGGFQTGTSSLHVYDGKFLARVERVIVVSMNYRVGALGFLALPGNPEAPGNMGLFDQQLALQWVQKNIAAFGGNPKSVTLFGESAGAASVSLHLLSPGSHSLFTRAILQSGSFNAPWAVTSLYEARNRTLNLAKLTGCSRENETEIIKCLRNKDPQEILLNEAFVVPYGTPLSVNFGPTVDGDFLTDMPDILLELGQFKKTQILVGVNKDEGTWFLVAGAPGFSKDNNSIITRKEFQEGLKIFFPGVSEFGKESILFHYTDWVDDQRPENYREALGDVVGDYNFICPALEFTKKFSEWGNNAFFYYFEHRSSKLPWPEWMGVMHGYEIEFVFGLPLERRDNYTKAEEILSRSIVKRWANFAKYGNPNETQNNSTSWPVFKSTEQKYLTLNTESTRIMTKLRAQQCRFWTSFFPKVLEMTGNIDEAEWEWKAGFHRWNNYMMDWKNQFNDYTSKKESCVGL
B2: A227S/S315G/A356W/Y360G (protein, UniProt P06276 29-602, looked up, variant A227S S315G A356W Y360G)
Cholinesterase: EDDIIIATKNGKVRGMNLTVFGGTVTAFLGIPYAQPPLGRLRFKKPQSLTKWSDIWNATKYANSCCQNIDQSFPGFHGSEMWNPNTDLSEDCLYLNVWIPAPKPKNATVLIWIYGGGFQTGTSSLHVYDGKFLARVERVIVVSMNYRVGALGFLALPGNPEAPGNMGLFDQQLALQWVQKNIAAFGGNPKSVTLFGESSGAASVSLHLLSPGSHSLFTRAILQSGSFNAPWAVTSLYEARNRTLNLAKLTGCSRENETEIIKCLRNKDPQEILLNEAFVVPYGTPLGVNFGPTVDGDFLTDMPDILLELGQFKKTQILVGVNKDEGTWFLVGGAPGFSKDNNSIITRKEFQEGLKIFFPGVSEFGKESILFHYTDWVDDQRPENYREALGDVVGDYNFICPALEFTKKFSEWGNNAFFYYFEHRSSKLPWPEWMGVMHGYEIEFVFGLPLERRDNYTKAEEILSRSIVKRWANFAKYGNPNETQNNSTSWPVFKSTEQKYLTLNTESTRIMTKLRAQQCRFWTSFFPKVLEMTGNIDEAEWEWKAGFHRWNNYMMDWKNQFNDYTSKKESCVGL

Conditions: cited from earlier work

| Molecule | kcat relative to wild-type BChE (cocaine hydrolase activity) | Catalytic efficiency relative to wild-type BChE (hydrolysis of cocaine) |
| --- | --- | --- |
| B1 | 40 fold | – |
| B2 | – | 500 fold |
